Measurements reported in the Human Domainome abundance scans (Beltran et al. 2025).
± gives the uncertainty stated by the source.

B1: Transitional endoplasmic reticulum ATPase, residues 26 to 106; numbered along this chain, P55072 (parent)
chain: LIVDEAINEDNSVVSLSQPKMDELQLFRGDTVLLKGKKRREAVCIVLSDDTCSDEKIRMNRVVRNNLRVRLGDVISIQPCP
B2: Gamma-crystallin C, residues 91 to 170; numbered along this chain, P07315 (parent)
chain: RLYEREDHKGLMMELSEDCPSIQDRFHLSEIRSLHVLEGCWVLYELPNYRGRQYLLRPQEYRRCQDWGAMDAKAGSLRRV

Variants of: B1
Experiment: abundance fitness (aPCA) (normalised: wild type 0, dead -1); higher = more abundant; growth selection in yeast, the domain comes from the species named
Conditions: Homo sapiens
For I45D, the abundance fitness was -0.183 ± 0.084.
For I45N, the abundance fitness was 0.036 ± 0.13.
In the case of I45H, the abundance fitness is reported as -0.088 ± 0.084.
For L34Q, the abundance fitness was -0.461 ± 0.32.
L34W gave an abundance fitness of -0.777 ± 0.23.
Work on L34K yielded an abundance fitness of -0.806 ± 0.2.
Work on L34E yielded an abundance fitness of -1.01 ± 0.25.
For L34N, the abundance fitness was -0.891 ± 0.28.
Work on I57P yielded an abundance fitness of -0.933 ± 0.17.
With I57E the abundance fitness was -0.804 ± 0.15.
For V74C, the abundance fitness was -0.039 ± 0.08.
With V74D the abundance fitness was -0.022 ± 0.091.
V74K showed an abundance fitness of 0.008 ± 0.13.
V74P showed an abundance fitness of 0.009 ± 0.095.
In the case of V74M, the abundance fitness is reported as -0.107 ± 0.093.
L1C showed an abundance fitness of -0.117 ± 0.21.
With L1K the abundance fitness was -0.292 ± 0.31.
Variant R68N has an abundance fitness of -0.123 ± 0.14.
Variant R68P has an abundance fitness of -0.891 ± 0.17.
Variant R68W has an abundance fitness of -0.169 ± 0.097.
R68K gave an abundance fitness of 0.122 ± 0.12.
With R68Y the abundance fitness was 0.274 ± 0.23.
R68V gave an abundance fitness of -0.124 ± 0.063.
Work on K20N yielded an abundance fitness of -0.093 ± 0.1.
Variant K20L has an abundance fitness of 0.01 ± 0.051.
Work on K20E yielded an abundance fitness of -0.705 ± 0.12.
With K20I the abundance fitness was -0.008 ± 0.058.
For C80G, the abundance fitness was 0.056 ± 0.039.
In the case of C80L, the abundance fitness is reported as 0.022 ± 0.073.
Variant C80I has an abundance fitness of 0.047 ± 0.079.
E5S gave an abundance fitness of 0.029 ± 0.052.
With G29H the abundance fitness was 0.059 ± 0.17.
G29V showed an abundance fitness of -0.612 ± 0.098.
Work on G29R yielded an abundance fitness of -0.197 ± 0.056.
K38A gave an abundance fitness of 0.02 ± 0.076.
In the case of K38M, the abundance fitness is reported as -0.018 ± 0.12.
With K38E the abundance fitness was -0.09 ± 0.11.
K38F showed an abundance fitness of -0.079 ± 0.2.
E23F gave an abundance fitness of -0.263 ± 0.21.
For E23R, the abundance fitness was -0.09 ± 0.064.
In the case of A6L, the abundance fitness is reported as 0.092 ± 0.051.
A6K showed an abundance fitness of -0.154 ± 0.079.
Variant A6N has an abundance fitness of -0.004 ± 0.22.
Work on A6H yielded an abundance fitness of 0.001 ± 0.084.
A6S showed an abundance fitness of 0.029 ± 0.061.
A6P gave an abundance fitness of 0.024 ± 0.087.
With N65V the abundance fitness was -0.131 ± 0.063.
In the case of N65A, the abundance fitness is reported as -0.026 ± 0.067.
With N65G the abundance fitness was -0.066 ± 0.056.
Work on T31I yielded an abundance fitness of -0.235 ± 0.13.
Work on T31W yielded an abundance fitness of -0.134 ± 0.087.
T31P gave an abundance fitness of -0.204 ± 0.076.
With T31G the abundance fitness was -0.063 ± 0.042.
In the case of T31S, the abundance fitness is reported as -0.028 ± 0.051.
T31F showed an abundance fitness of -0.198 ± 0.09.
D22E showed an abundance fitness of -0.038 ± 0.059.
Variant D22A has an abundance fitness of -0.109 ± 0.05.
Variant D22Q has an abundance fitness of 0.023 ± 0.092.
Variant D22Y has an abundance fitness of -0.067 ± 0.088.
For D22K, the abundance fitness was -0.063 ± 0.083.
Variant P79K has an abundance fitness of 0.113 ± 0.12.
Work on P79L yielded an abundance fitness of -0.044 ± 0.035.
Variant P79F has an abundance fitness of -0.012 ± 0.088.
In the case of I77C, the abundance fitness is reported as -0.074 ± 0.2.
I77F showed an abundance fitness of -0.259 ± 0.11.
For I77K, the abundance fitness was -1.01 ± 0.38.
For I77M, the abundance fitness was -0.097 ± 0.078.
Work on I77L yielded an abundance fitness of 0.013 ± 0.057.
For I77A, the abundance fitness was -0.309 ± 0.075.
I77E showed an abundance fitness of -0.85 ± 0.22.
For E55F, the abundance fitness was -0.052 ± 0.09.
Variant E55V has an abundance fitness of -0.053 ± 0.046.
E55H gave an abundance fitness of -0.041 ± 0.11.
For E41G, the abundance fitness was -0.269 ± 0.061.
E41Q showed an abundance fitness of -0.098 ± 0.43.
In the case of E41P, the abundance fitness is reported as -0.131 ± 0.1.
In the case of Q25C, the abundance fitness is reported as 0.006 ± 0.073.
Q25W showed an abundance fitness of -0.256 ± 0.11.
Q25F showed an abundance fitness of -0.129 ± 0.096.
With Q25T the abundance fitness was -0.102 ± 0.062.
Variant V69R has an abundance fitness of -0.665 ± 0.079.
With V69A the abundance fitness was -0.045 ± 0.064.
With G36I the abundance fitness was -0.545 ± 0.2.
For G36N, the abundance fitness was 0.058 ± 0.13.
G36M gave an abundance fitness of -0.309 ± 0.13.
L26V gave an abundance fitness of -0.027 ± 0.057.
In the case of L26C, the abundance fitness is reported as -0.346 ± 0.1.
L26E showed an abundance fitness of -1.02 ± 0.24.
P81A gave an abundance fitness of -0.042 ± 0.044.
Work on P81D yielded an abundance fitness of 0.058 ± 0.12.
Variant P81Y has an abundance fitness of -0.224 ± 0.16.
G72K gave an abundance fitness of -0.317 ± 0.097.
For G72Q, the abundance fitness was -0.424 ± 0.13.
Variant G72H has an abundance fitness of -0.257 ± 0.16.
For N11L, the abundance fitness was -0.007 ± 0.053.
Variant N11V has an abundance fitness of -0.067 ± 0.045.
Variant N11A has an abundance fitness of -0.105 ± 0.048.
M59W gave an abundance fitness of -0.99 ± 0.14.
For M59S, the abundance fitness was -0.817 ± 0.13.
In the case of M59A, the abundance fitness is reported as -0.258 ± 0.086.
Work on M59I yielded an abundance fitness of -0.002 ± 0.14.
N60Q gave an abundance fitness of -0.307 ± 0.1.
N60R gave an abundance fitness of -0.325 ± 0.073.
With N60W the abundance fitness was -0.899 ± 0.24.
Work on N60I yielded an abundance fitness of -0.681 ± 0.32.
In the case of N60F, the abundance fitness is reported as -0.889 ± 0.16.
D4F gave an abundance fitness of -0.345 ± 0.11.
D4R showed an abundance fitness of -0.627 ± 0.062.
Work on D4S yielded an abundance fitness of -0.018 ± 0.05.
With D4T the abundance fitness was -0.017 ± 0.061.
In the case of D4Y, the abundance fitness is reported as -0.32 ± 0.28.
For S17R, the abundance fitness was -0.431 ± 0.043.
In the case of S17C, the abundance fitness is reported as -0.381 ± 0.11.
With R40D the abundance fitness was -0.085 ± 0.099.
R40F showed an abundance fitness of -0.006 ± 0.13.
R40T gave an abundance fitness of 0.086 ± 0.082.
With R40I the abundance fitness was -0.046 ± 0.13.
Variant R40E has an abundance fitness of -0.051 ± 0.13.
For R40S, the abundance fitness was -0.061 ± 0.054.
Variant R40P has an abundance fitness of -0.122 ± 0.11.
In the case of R40V, the abundance fitness is reported as 0.027 ± 0.045.
V14I showed an abundance fitness of 0.042 ± 0.084.

Variants of: B2
Experiment: as above
Conditions: Homo sapiens
For G75T, the abundance fitness was -0.949 ± 0.43.
G75Q gave an abundance fitness of -0.746 ± 0.21.
In the case of G75N, the abundance fitness is reported as -0.767 ± 0.46.
G75P gave an abundance fitness of -0.84 ± 0.18.
With G75S the abundance fitness was -0.479 ± 0.12.
Work on G75L yielded an abundance fitness of -0.826 ± 0.27.
With G75C the abundance fitness was -0.516 ± 0.25.
Work on G75W yielded an abundance fitness of -0.989 ± 0.26.
Variant G75D has an abundance fitness of -0.705 ± 0.21.
G75R showed an abundance fitness of -0.933 ± 0.14.
Work on G75H yielded an abundance fitness of -0.736 ± 0.47.
Variant G75V has an abundance fitness of -0.815 ± 0.17.
Work on G75E yielded an abundance fitness of -0.984 ± 0.49.
Work on G75A yielded an abundance fitness of -0.607 ± 0.095.
With L77D the abundance fitness was -0.94 ± 0.5.
L77F showed an abundance fitness of -0.304 ± 0.15.
L77A showed an abundance fitness of -0.524 ± 0.056.
With L77E the abundance fitness was -0.966 ± 0.49.
With L77C the abundance fitness was -0.325 ± 0.16.
Work on L77I yielded an abundance fitness of 0.011 ± 0.36.
With L77M the abundance fitness was -0.035 ± 0.1.
In the case of L77R, the abundance fitness is reported as -1.06 ± 0.31.
Work on L77V yielded an abundance fitness of -0.169 ± 0.096.
Work on L77T yielded an abundance fitness of -0.626 ± 0.23.
With A74M the abundance fitness was -0.836 ± 0.37.
Work on A74I yielded an abundance fitness of 0.124 ± 0.24.
In the case of A74T, the abundance fitness is reported as -0.128 ± 0.045.
In the case of A74S, the abundance fitness is reported as -0.314 ± 0.062.
In the case of A74Q, the abundance fitness is reported as -0.797 ± 0.21.
With A74E the abundance fitness was -0.56 ± 0.13.
For A74P, the abundance fitness was -0.779 ± 0.13.
In the case of A74Y, the abundance fitness is reported as -0.781 ± 0.45.
Work on A74V yielded an abundance fitness of 0.036 ± 0.067.
Work on A74G yielded an abundance fitness of -0.454 ± 0.1.
Work on A74L yielded an abundance fitness of -0.454 ± 0.086.
Variant A74D has an abundance fitness of -0.749 ± 0.35.
A74C gave an abundance fitness of -0.177 ± 0.21.
V80F showed an abundance fitness of -0.1 ± 0.17.
In the case of V80I, the abundance fitness is reported as -0.341 ± 0.21.
Work on S76I yielded an abundance fitness of 0.016 ± 0.29.
Variant S76A has an abundance fitness of -0.628 ± 0.14.
For S76V, the abundance fitness was -0.773 ± 0.18.
For S76P, the abundance fitness was -0.776 ± 0.19.
S76H showed an abundance fitness of -0.735 ± 0.36.
In the case of R79S, the abundance fitness is reported as -0.202 ± 0.29.
